Test results as given in the Human Domainome abundance scans (Beltran et al. 2025).
± gives the uncertainty stated by the source.

Assay: abundance fitness (aPCA) (normalised: wild type 0, dead -1); higher = more abundant; growth selection in yeast, the domain comes from the species named
Conditions: Homo sapiens

In order of falling abundance fitness:
1. DnaJ homolog subfamily B member 1 D34E, P25685  0.188 ± 0.33
2. DnaJ homolog subfamily B member 1 D34S, P25685  0.075 ± 0.061
3. DnaJ homolog subfamily B member 1 D34A, P25685  0.058 ± 0.14
4. DnaJ homolog subfamily B member 1 D34Q, P25685  0.054 ± 0.11
5. DnaJ homolog subfamily B member 1 D17L, P25685  0.038 ± 0.072
6. DnaJ homolog subfamily B member 1 D53N, P25685  0.035 ± 0.12
7. DnaJ homolog subfamily B member 1 D53T, P25685  0.032 ± 0.086
8. DnaJ homolog subfamily B member 1 D17C, P25685  0.031 ± 0.23
9. DnaJ homolog subfamily B member 1 D34C, P25685  0.009 ± 0.14
10. DnaJ homolog subfamily B member 1 D34H, P25685  -0.008 ± 0.11
11. DnaJ homolog subfamily B member 1 D34G, P25685  -0.012 ± 0.11
12. DnaJ homolog subfamily B member 1 D53V, P25685  -0.013 ± 0.093
13. DnaJ homolog subfamily B member 1 D34W, P25685  -0.02 ± 0.15
14. DnaJ homolog subfamily B member 1 D34V, P25685  -0.022 ± 0.081
15. DnaJ homolog subfamily B member 1 D17I, P25685  -0.029 ± 0.076
16. DnaJ homolog subfamily B member 1 D53A, P25685  -0.036 ± 0.088
17. DnaJ homolog subfamily B member 1 D34N, P25685  -0.039 ± 0.17
18. DnaJ homolog subfamily B member 1 D34L, P25685  -0.042 ± 0.066
19. DnaJ homolog subfamily B member 1 D34K, P25685  -0.046 ± 0.074
20. DnaJ homolog subfamily B member 1 D34M, P25685  -0.053 ± 0.1
21. DnaJ homolog subfamily B member 1 D53L, P25685  -0.058 ± 0.066
22. DnaJ homolog subfamily B member 1 D17V, P25685  -0.059 ± 0.053
23. DnaJ homolog subfamily B member 1 D17M, P25685  -0.06 ± 0.089
24. DnaJ homolog subfamily B member 1 D53K, P25685  -0.067 ± 0.11
25. DnaJ homolog subfamily B member 1 D57N, P25685  -0.071 ± 0.29
26. DnaJ homolog subfamily B member 1 D17A, P25685  -0.072 ± 0.096
27. DnaJ homolog subfamily B member 1 D57T, P25685  -0.072 ± 0.089
28. DnaJ homolog subfamily B member 1 D17Y, P25685  -0.09 ± 0.078
29. DnaJ homolog subfamily B member 1 D57C, P25685  -0.09 ± 0.098
30. DnaJ homolog subfamily B member 1 D53C, P25685  -0.093 ± 0.37
31. DnaJ homolog subfamily B member 1 D17S, P25685  -0.094 ± 0.073
32. DnaJ homolog subfamily B member 1 D17E, P25685  -0.095 ± 0.1
33. DnaJ homolog subfamily B member 1 D57S, P25685  -0.097 ± 0.076
34. DnaJ homolog subfamily B member 1 D53G, P25685  -0.098 ± 0.15
35. DnaJ homolog subfamily B member 1 D17N, P25685  -0.104 ± 0.12
36. DnaJ homolog subfamily B member 1 D57K, P25685  -0.123 ± 0.13
37. DnaJ homolog subfamily B member 1 D65A, P25685  -0.123 ± 0.078
38. DnaJ homolog subfamily B member 1 D53M, P25685  -0.124 ± 0.09
39. DnaJ homolog subfamily B member 1 D53R, P25685  -0.132 ± 0.14
40. DnaJ homolog subfamily B member 1 D34Y, P25685  -0.135 ± 0.081
41. DnaJ homolog subfamily B member 1 D17W, P25685  -0.142 ± 0.15
42. DnaJ homolog subfamily B member 1 D4R, P25685  -0.151 ± 0.17
43. DnaJ homolog subfamily B member 1 D17T, P25685  -0.161 ± 0.11
44. DnaJ homolog subfamily B member 1 D17P, P25685  -0.18 ± 0.071
45. DnaJ homolog subfamily B member 1 D17H, P25685  -0.182 ± 0.13
46. DnaJ homolog subfamily B member 1 D17F, P25685  -0.183 ± 0.12
47. DnaJ homolog subfamily B member 1 D4E, P25685  -0.186 ± 0.19
48. DnaJ homolog subfamily B member 1 D4S, P25685  -0.193 ± 0.19
49. DnaJ homolog subfamily B member 1 D4M, P25685  -0.196 ± 0.15
50. DnaJ homolog subfamily B member 1 D17G, P25685  -0.199 ± 0.087
51. DnaJ homolog subfamily B member 1 D4T, P25685  -0.207 ± 0.18
52. DnaJ homolog subfamily B member 1 D17R, P25685  -0.211 ± 0.084
53. DnaJ homolog subfamily B member 1 D53I, P25685  -0.224 ± 0.11
54. DnaJ homolog subfamily B member 1 D34I, P25685  -0.233 ± 0.1
55. DnaJ homolog subfamily B member 1 D4H, P25685  -0.236 ± 0.44
56. DnaJ homolog subfamily B member 1 D34R, P25685  -0.242 ± 0.089
57. DnaJ homolog subfamily B member 1 D34F, P25685  -0.249 ± 0.1
58. DnaJ homolog subfamily B member 1 D53F, P25685  -0.249 ± 0.19
59. DnaJ homolog subfamily B member 1 D4Y, P25685  -0.256 ± 0.19
60. DnaJ homolog subfamily B member 1 D53H, P25685  -0.262 ± 0.1
61. DnaJ homolog subfamily B member 1 D57A, P25685  -0.269 ± 0.088
62. DnaJ homolog subfamily B member 1 D57E, P25685  -0.269 ± 0.14
63. DnaJ homolog subfamily B member 1 A49Y, P25685  -0.277 ± 0.18
64. DnaJ homolog subfamily B member 1 D53Q, P25685  -0.279 ± 0.097
65. DnaJ homolog subfamily B member 1 D34P, P25685  -0.285 ± 0.094
66. DnaJ homolog subfamily B member 1 D17K, P25685  -0.287 ± 0.14
67. DnaJ homolog subfamily B member 1 D57G, P25685  -0.298 ± 0.11
68. DnaJ homolog subfamily B member 1 A49W, P25685  -0.307 ± 0.088
69. DnaJ homolog subfamily B member 1 D57V, P25685  -0.317 ± 0.098
70. DnaJ homolog subfamily B member 1 D4L, P25685  -0.341 ± 0.23
71. DnaJ homolog subfamily B member 1 D53Y, P25685  -0.356 ± 0.077
72. DnaJ homolog subfamily B member 1 D57M, P25685  -0.366 ± 0.084
73. DnaJ homolog subfamily B member 1 D4G, P25685  -0.398 ± 0.17
74. DnaJ homolog subfamily B member 1 D53E, P25685  -0.398 ± 0.12
75. DnaJ homolog subfamily B member 1 D53W, P25685  -0.405 ± 0.12
76. DnaJ homolog subfamily B member 1 A51S, P25685  -0.406 ± 0.08
77. DnaJ homolog subfamily B member 1 D57R, P25685  -0.416 ± 0.072
78. DnaJ homolog subfamily B member 1 D4V, P25685  -0.433 ± 0.13
79. DnaJ homolog subfamily B member 1 D57Y, P25685  -0.45 ± 0.11
80. DnaJ homolog subfamily B member 1 A51P, P25685  -0.488 ± 0.098
81. DnaJ homolog subfamily B member 1 D57L, P25685  -0.53 ± 0.061
82. DnaJ homolog subfamily B member 1 A51Y, P25685  -0.576 ± 0.39
83. DnaJ homolog subfamily B member 1 D4F, P25685  -0.608 ± 0.48
84. DnaJ homolog subfamily B member 1 A51G, P25685  -0.628 ± 0.061
85. DnaJ homolog subfamily B member 1 D57I, P25685  -0.637 ± 0.22
86. DnaJ homolog subfamily B member 1 D57F, P25685  -0.668 ± 0.17
87. DnaJ homolog subfamily B member 1 D53P, P25685  -0.709 ± 0.079
88. DnaJ homolog subfamily B member 1 D4P, P25685  -0.712 ± 0.16
89. DnaJ homolog subfamily B member 1 D57P, P25685  -0.715 ± 0.19
90. DnaJ homolog subfamily B member 1 A51E, P25685  -0.718 ± 0.098
91. DnaJ homolog subfamily B member 1 A51C, P25685  -0.755 ± 0.18
92. DnaJ homolog subfamily B member 1 A51Q, P25685  -0.755 ± 0.086
93. DnaJ homolog subfamily B member 1 D57W, P25685  -0.812 ± 0.2
94. DnaJ homolog subfamily B member 1 A51T, P25685  -0.815 ± 0.071
95. DnaJ homolog subfamily B member 1 A51R, P25685  -0.84 ± 0.067
96. DnaJ homolog subfamily B member 1 A51K, P25685  -0.885 ± 0.15
97. DnaJ homolog subfamily B member 1 A51V, P25685  -0.915 ± 0.065
98. DnaJ homolog subfamily B member 1 A51I, P25685  -0.977 ± 0.17
99. DnaJ homolog subfamily B member 1 A51L, P25685  -1.06 ± 0.082
100. DnaJ homolog subfamily B member 1 A51W, P25685  -1.08 ± 0.096
101. DnaJ homolog subfamily B member 1 A51M, P25685  -1.1 ± 0.085
102. DnaJ homolog subfamily B member 1 A51D, P25685  -1.19 ± 0.16
103. DnaJ homolog subfamily B member 1 A51F, P25685  -1.49 ± 0.19
